Kd and koff data for 5 molecules are collected here from paper PMC8293163 (2021).

Assay [1] addresses T117-F MPER scaffold. The experiment in a line: BLI. On the technique in general: BLI is a label-free optical method that tracks binding on a fibre tip over time.
Assay [2] deals with T117-F MPER scaffold. The experiment in a line: BLI. This is another data set of the same source.

B1: 10E8v4-P100fA Fab (Fab, V domains shown)
VH: EVRLVESGGGLVKPGGSLRLSCSASGFDFDNAWMTWVRQPPGKGLEWVGRITGPGEGWSVDYAESVKGRFTISRDNTKNTLYLEMNNVRTEDTGYYFCARTGKYYDFWSGYAPGEEYFQDWGQGTLVIVSS
VL: ASELTQDPAVSVALKQTVTITCRGDSLRSHYASWYQKKPGQAPVLLFYGKNNRPSGIPDRFSGSASGNRASLTITGAQAEDEADYYCSSRDKSGSRLSVFGGGTKLTVL
The term Kd denotes the concentration at which binding is half-saturated. A lower Kd goes with higher affinity. The koff is the rate constant with which the complex falls apart. Regarding B1, the Kd in assay [1] is 0.103 µM. The same molecule returned a koff in assay [2] of 0.021 s⁻¹.

B2: 10E8v4-H31FLC Fab (Fab, V domains shown)
VH: EVRLVESGGGLVKPGGSLRLSCSASGFDFDNAWMTWVRQPPGKGLEWVGRITGPGEGWSVDYAESVKGRFTISRDNTKNTLYLEMNNVRTEDTGYYFCARTGKYYDFWSGYPPGEEYFQDWGQGTLVIVSS
VL: SELTQDPAVSVALKQTVTITCRGDSLRSFYASWYQKKPGQAPVLLFYGKNNRPSGIPDRFSGSASGNRASLTITGAQAEDEADYYCSSRDKSGSRLSVFGGGTKLTVL
Regarding B2, the dissociation constant Kd in assay [1] came to 1.46 µM. The molecule further came in with a koff in assay [2] of 0.0364 s⁻¹.

B3: 10E8v4 Fab (Fab, V domains shown)
VH: EVRLVESGGGLVKPGGSLRLSCSASGFDFDNAWMTWVRQPPGKGLEWVGRITGPGEGWSVDYAESVKGRFTISRDNTKNTLYLEMNNVRTEDTGYYFCARTGKYYDFWSGYPPGEEYFQDWGQGTLVIVSS
VL: SELTQDPAVSVALKQTVTITCRGDSLRSHYASWYQKKPGQAPVLLFYGKNNRPSGIPDRFSGSASGNRASLTITGAQAEDEADYYCSSRDKSGSRLSVFGGGTKLTVL
Take B3: the Kd in assay [1] amounted to 0.0094 µM. The molecule further gave a dissociation rate constant (koff) in assay [2] of 0.00137 s⁻¹.

B4: 10E8v4-P100fA-P100gA Fab (Fab, V domains shown)
VH: EVRLVESGGGLVKPGGSLRLSCSASGFDFDNAWMTWVRQPPGKGLEWVGRITGPGEGWSVDYAESVKGRFTISRDNTKNTLYLEMNNVRTEDTGYYFCARTGKYYDFWSGYAAGEEYFQDWGQGTLVIVSS
VL: ASELTQDPAVSVALKQTVTITCRGDSLRSHYASWYQKKPGQAPVLLFYGKNNRPSGIPDRFSGSASGNRASLTITGAQAEDEADYYCSSRDKSGSRLSVFGGGTKLTVL
As to B4, binding in assay [1] was put at a Kd of 2.75 µM. In addition, the off-rate constant (koff) in assay [2] was determined as 0.0583 s⁻¹.

B5: 10E8v4-P100gA Fab (Fab, V domains shown)
VH: EVRLVESGGGLVKPGGSLRLSCSASGFDFDNAWMTWVRQPPGKGLEWVGRITGPGEGWSVDYAESVKGRFTISRDNTKNTLYLEMNNVRTEDTGYYFCARTGKYYDFWSGYPAGEEYFQDWGQGTLVIVSS
VL: ASELTQDPAVSVALKQTVTITCRGDSLRSHYASWYQKKPGQAPVLLFYGKNNRPSGIPDRFSGSASGNRASLTITGAQAEDEADYYCSSRDKSGSRLSVFGGGTKLTVL
In assay [1], B5 returned a Kd of 0.171 µM. Further, the off-rate (koff) in assay [2] came to 0.0314 s⁻¹.
